Experimental data published in paper PMC6982183.

Biological target: human Hsp60 G190W mutant (human) (UniProt P10809)
Test: SEC; Superdex 200 Increase 10/300 GL, 50 mM Tris-HCl (pH 7.8 at 25 °C), 2 mM DTT, 2 mM EDTA, 0.5 mg sample, 0.75 mL/min; size from calibration with molecular weight standards; before and after agitation

## human Hsp60 G190W mutant (from UniProt P10809 53-573) (natural protein)
  stoichiometry N: 14
